Assay results reported in patent US20100080799.

System: recombinant H2A.X (WT), N-terminal 6xHis tag

## recombinant N-terminal portion of WSTF (N-WSTF)
  kinase activity (in vitro kinase assay): Only N-WSTF had kinase activity
